Experimental data reported in the supplement of paper PMC7125110.
± gives the standard error. This sample holds only a part of the variants without activity.

B1: glmS ribozyme (parent)
chain: AUAAAAGCGCCAGAACUACAGAAAUGUAGUUGACGAGGAGGAGGUUUAUCGAAUUUUCGGCGGAUGCCUCCAAA

What was measured:
Conditions in all cases: with glucosamine-6-phosphate
glucosamine-6-phosphate [1] = variants of: B1; experiment: self-cleavage kobs at 40 uM GlcN6P; higher = faster cleavage; RNA array
In short: (§1)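 Barcoded ribozyme variants on sequenced MiSeq chips were transcribed in situ by E. coli RNA polymerase and followed at 37 °C through a hybridised Cy3 probe. Glucosamine-6-phosphate at 40 μM to 10 mM in HEPES/KCl/Mg(OAc)2 buffer was flowed in, and tiles were imaged over ~14 h. Signals were normalised to baseline and to non-cleaving reference variants, and per-tile medians were fit to one- or two-exponential decays to give kobs. Weighted Michaelis–Menten fits across concentrations gave kcat and KM.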

glucosamine-6-phosphate [2] = variants of: B1; experiment: self-cleavage kobs at 640 uM GlcN6P; higher = faster cleavage; RNA array
In short: as §1

glucosamine-6-phosphate [3] = variants of: B1; experiment: self-cleavage kobs at 10000 uM GlcN6P; higher = faster cleavage; RNA array
In short: as §1

glucosamine-6-phosphate [4] = variants of: B1; experiment: self-cleavage kobs at 2500 uM GlcN6P; higher = faster cleavage; RNA array
In short: as §1

glucosamine-6-phosphate [5] = variants of: B1; experiment: self-cleavage kobs at 160 uM GlcN6P; higher = faster cleavage; RNA array
In short: as §1

Row | Variant | self-cleavage kobs at 40 uM GlcN6P (glucosamine-6-phosphate [1]) [s⁻¹] | self-cleavage kobs at 640 uM GlcN6P (glucosamine-6-phosphate [2]) [s⁻¹] | self-cleavage kobs at 10000 uM GlcN6P (glucosamine-6-phosphate [3]) [s⁻¹] | self-cleavage kobs at 2500 uM GlcN6P (glucosamine-6-phosphate [4]) [s⁻¹] | self-cleavage kobs at 160 uM GlcN6P (glucosamine-6-phosphate [5]) [s⁻¹]
1 | AUAAAAGCUCCAGAACUACAGAAAUGUAGGUGACGAGGAGGAGGUUUAUCGAAUUUUCGGCGGAUGCCUCCAAA [G9U U30G] | < 1e-05 | < 1e-05 | < 1e-05 | – | –
2 | AUAAAAGCGUCAGAACUACAGAAAUGUAGUUGACGAGGAGGAGUUUUAUCGAAUUUUCGGCGGAUGCCUCCAAA [C10U G44U] | < 1e-05 | < 1e-05 | < 1e-05 | < 1e-05 | –
3 | AUAAACGCGCCAGAACUACAGAAAUGUAGUUGACGAGGAGGAGGUUUAGCGAAUUUUCGGCGGAUGCCUCCAAA [A6C U49G] | < 1e-05 | < 1e-05 | – | – | –
4 | AUAAAAGCGCCAGAACUACAGAAAUGUAGUUGACGAGGAGGAGGUUUAUCGAGUUUUCGGCAGAUGCCUCCAAA [A53G G62A] | < 1e-05 | < 1e-05 | < 1e-05 | – | –
5 | AUAAAAGCGCCAGAACUACAGAAAUGUAGUUGACGAGGAGGAGGUUUAUCGAAUUUUCGGUGGAUGCGUACAAA [C61U C68G C70A] | < 1e-05 | – | – | – | –
6 | AUAAAAGCGCCAGAACUACAGAAAUGUAGUUCACGAGGACGAGGUUUAUCGAAUUUUCGGCGGAUGCCUCCAAA [G32C G40C] | < 1e-05 | < 1e-05 | – | – | < 1e-05
7 | AUAAAAGCGGCAGAACUACAGAAAUGUAGUUGACGAGGAGGAGGUUUAGCGAAUUUUCGCCGGAUGCCUCCAAA [C10G U49G G60C] | < 1e-05 | < 1e-05 | – | – | –
8 | AUAAAAGCGCCAGAUCUACAGAAAUGUAGUUGACGAGGAGGAGGUUUAUCGAAUUUUCGAAGGAUUCCUCCAAA [A15U G60A C61A G66U] | < 1e-05 | – | – | – | –
9 | AUAAAAGCGCCAGAACUACAGAAAUGUAGUUGACGAGGAGCGGGUUUAUCGACUUUUCGGCGAAUGCCUCCAAA [G41C A42G A53C G63A] | < 1e-05 | < 1e-05 | – | < 1e-05 | –
10 | AUAAAAGCGCCAGAACUACAGAAAUUUAGUGGACGAGGAGGAGUUUUAUUGAAUUUUCGGCGGAUGCCUCCAAA [G26U U31G G44U C50U] | < 1e-05 | – | < 1e-05 | < 1e-05 | –
11 | AUAAAAGCGCCAGAACUACAGAAAUGUAGUUGACGAGAAGGAGGUUAAUCGAAUUUUCGGCGGAUGCCUCGAAA [G38A U47A C71G] | < 1e-05 | – | < 1e-05 | – | –
12 | AUAAAAGCGCCAGUACUACAGAAAUGUAGUUGACGAGGAGGAGGUUUAUCGAAUUUUCGGCGUAUGCCUCCAAA [A14U G63U] | < 1e-05 | < 1e-05 | – | < 1e-05 | < 1e-05
13 | AUAAAUGCGCCGGAACUACAGAAAUGUAGUUGACGAGGAGGCGGUUUAUCGUAUUUUCGGCGGGUGCGUCCAAA [A6U A12G A42C A52U A64G C68G] | < 1e-05 | – | < 1e-05 | < 1e-05 | –
14 | AUAAAAGCGCCAAAACUACAGAAAUGUAGUCGACGUGGAGGAGGUUUAUCGAAUUUUAGCCAGAUGGCUCCAAA [G13A U31C A36U C58A G60C G62A C67G] | 6.61e-05 ± 3.2e-05 | – | – | 0.000425 ± 0.00017 | –
15 | AUAAAAGCGCCAGAACUACAGAAAUGUAGUUGACCAGGAGUAGGUUUAUCGAAUUUUCGGCGGAUGCCUCCAAA [G35C G41U] | < 1e-05 | < 1e-05 | < 1e-05 | < 1e-05 | < 1e-05
16 | AUAAAAGCGCCACAACUACAGAAAUGUAGUUGACGAGGAGGAGGUUUAUCGAAUUUUCGGCGGAGGCCUCCAAA [G13C U65G] | < 1e-05 | < 1e-05 | – | < 1e-05 | < 1e-05
17 | AUAAAAGCGCCAGAACUACAGAAAUGUAGUUGACGAGGAAGAGGUUUAUCGACUUUUCGGCUGAUGCCUCCAAA [G40A A53C G62U] | < 1e-05 | – | < 1e-05 | – | –
18 | AUAAAAGGGCCAGAACUACAGAAAUGUAGUCGUCGAGGAGGAGGUCUAUCGAAUUUUCGGCGGAUGACUCCAAA [C8G U31C A33U U46C C67A] | < 1e-05 | – | < 1e-05 | – | –
19 | AUAAAAGGGCCAGAACUACAGAAAUGUAGUUGACGAGGAGGAGGUUUAUCGAAUUUUCGGCGGAUGCGUCCAAA [C8G C68G] | < 1e-05 | – | < 1e-05 | – | < 1e-05
20 | AUAAAAGCGCCAGAACUACAGAAAUGUAGUUGACGAGGAGGAGGUUUAUCGCAUUUUCGGCGGUUGCCUCCAAA [A52C A64U] | < 1e-05 | < 1e-05 | < 1e-05 | < 1e-05 | < 1e-05
21 | AUAAAAGCGCCAGAACUACAGAAAUGUAGUAGACGAGGAGGAGGUUUAUCGAAUUUUCGGCGGAUGCCUCUAAA [U31A C71U] | 0.000386 ± 3.4e-05 | 0.00393 ± 0.00052 | 0.0362 ± 0.0056 | 0.00846 ± 0.0018 | 0.000552 ± 0.0001
22 | AUAAAAGCGCCAGAACUACAGAAAUGUAGUUAACGAGGAUGUGCUUUAUCGAAUUUUCGGCGGAUGGCUCCAAA [G32A G40U A42U G44C C67G] | < 1e-05 | – | < 1e-05 | – | –
23 | AUAAAAGCGCCAGAACUACAGAAAUGUAGUUGACGAGGGGGAGGUUUAUCGAAUUUUCGGCGGAUGCCACCAAA [A39G U69A] | 8.49e-05 ± 1.6e-05 | 0.000395 ± 6.6e-05 | 0.000139 ± 2.2e-05 | 0.000452 ± 0.00012 | 9.95e-05 ± 2.2e-05
24 | AUAAAAGCGCCAGAACUACAGAAAUGUAGUUGACGAGGAGGAGGUAUAUCGAAUUUACGGCGGAUGCCUCCAAA [U46A U57A] | < 1e-05 | – | – | – | < 1e-05
25 | AUAAAAGCGCCAGAACUACAGAAAUGUAGUUGACGAGGAGGACGUUUAUCGAAUUUUCGGCGGAUGCCUGCAAA [G43C C70G] | < 1e-05 | < 1e-05 | < 1e-05 | < 1e-05 | –
